Results reported in IntAct's records for PubMed 15965644.

B1: Hereditary hemochromatosis protein (Homo sapiens), Q30201 (parent)
chain: MGPRARPALLLLMLLQTAVLQGRLLRSHSLHYLFMGASEQDLGLSLFEALGYVDDQLFVFYDHESRRVEPRTPWVSSRISSQMWLQLSQSLKGWDHMFTVDFWTIMENHNHSKESHTLQVILGCEMQEDNSTEGYWKYGYDGQDHLEFCPDTLDWRAAEPRAWPTKLEWERHKIRARQNRAYLERDCPAQLQQLLELGRGVLDQQVPPLVKVTHHVTSSVTTLRCRALNYYPQNITMKWLKDKQPMDAKEFEPKDVLPNGDGTYQGWITLAVPPGEEQRYTCQVEHPGLDQPLIVIWEPSPSGTLVIGVISGIAVFVVILFIGILFIILRKRQGSRGAMGHYVLAERE

Variants of: B1
Settings: with b2mg_human B2M

effect of a mutation on the interaction | Variant
disrupting interaction | Q283P

Variants of: B1
Settings: with tfr1_human TFRC

effect of a mutation on the interaction | Variant
disrupting interaction | Q283P
